According to US20250270314A1 (TAVOTEK BIOTECH SUZHOU, published 2025):
Residue numbers refer to the chain shown, from its start. Each block holds one binder with its values, some of them ahead of it.

Assays:
[1] = target: T1, recombinant human CDH17 (R&D systems) (human, UniProt Q12864 23-787); test: ELISA, plate coated with recombinant human CDH17
T1 construct: Bought recombinant protein coated on the ELISA plate; also called human Cadherin-17
T1 sequence: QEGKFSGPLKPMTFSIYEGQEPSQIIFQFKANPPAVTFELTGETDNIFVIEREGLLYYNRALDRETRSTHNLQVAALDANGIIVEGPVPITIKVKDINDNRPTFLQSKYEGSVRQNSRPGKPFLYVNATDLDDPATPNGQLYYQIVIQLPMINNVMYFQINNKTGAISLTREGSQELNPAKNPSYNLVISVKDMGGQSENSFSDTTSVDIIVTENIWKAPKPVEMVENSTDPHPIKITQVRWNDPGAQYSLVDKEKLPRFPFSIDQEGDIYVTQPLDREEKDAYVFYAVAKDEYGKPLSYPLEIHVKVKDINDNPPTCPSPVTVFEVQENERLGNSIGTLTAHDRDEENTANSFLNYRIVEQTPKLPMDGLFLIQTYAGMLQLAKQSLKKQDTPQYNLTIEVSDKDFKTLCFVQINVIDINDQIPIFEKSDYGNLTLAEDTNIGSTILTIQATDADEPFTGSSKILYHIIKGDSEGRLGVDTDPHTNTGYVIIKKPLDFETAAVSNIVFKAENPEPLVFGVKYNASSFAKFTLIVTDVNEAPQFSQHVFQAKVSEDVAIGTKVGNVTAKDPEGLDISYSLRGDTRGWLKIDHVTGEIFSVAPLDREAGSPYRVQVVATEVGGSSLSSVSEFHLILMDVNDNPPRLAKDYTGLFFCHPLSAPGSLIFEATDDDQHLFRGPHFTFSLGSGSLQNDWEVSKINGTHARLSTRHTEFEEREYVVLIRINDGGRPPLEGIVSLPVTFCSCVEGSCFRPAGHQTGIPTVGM
Procedure: ELISA-based binding assay was employed to evaluate the binding to CDH17 by anti-CDH17 antibodies. In this assay, 100 μL of […] recombinant human CDH17 (R&D systems) was coated on an ELISA plate. Increasing concentrations of masked and reference mAbs were applied on the plate and their binding to the recombinant human proteins were detected by HRP-conjugated anti-human secondary antibody. […] The expressed anti-CDH17 mAbs had potent binding to CDH17. The anti-CDH17 were tested for binding to AGS gastric cancer cells and AsPC-1 pancreatic cancer cells.

[2] = target: T2, human CDH17 on AGS gastric cancer cells and AsPC-1 pancreatic cancer cells (human, UniProt Q12864 23-832); test: flow cytometry on AGS and AsPC-1 cells
T2 construct: Native CDH17 on the surface of cancer cell lines; also called CDH17 expressing AGS cells; CDH17 expressing AsPC-1 pancreatic cancer cells
T2 sequence: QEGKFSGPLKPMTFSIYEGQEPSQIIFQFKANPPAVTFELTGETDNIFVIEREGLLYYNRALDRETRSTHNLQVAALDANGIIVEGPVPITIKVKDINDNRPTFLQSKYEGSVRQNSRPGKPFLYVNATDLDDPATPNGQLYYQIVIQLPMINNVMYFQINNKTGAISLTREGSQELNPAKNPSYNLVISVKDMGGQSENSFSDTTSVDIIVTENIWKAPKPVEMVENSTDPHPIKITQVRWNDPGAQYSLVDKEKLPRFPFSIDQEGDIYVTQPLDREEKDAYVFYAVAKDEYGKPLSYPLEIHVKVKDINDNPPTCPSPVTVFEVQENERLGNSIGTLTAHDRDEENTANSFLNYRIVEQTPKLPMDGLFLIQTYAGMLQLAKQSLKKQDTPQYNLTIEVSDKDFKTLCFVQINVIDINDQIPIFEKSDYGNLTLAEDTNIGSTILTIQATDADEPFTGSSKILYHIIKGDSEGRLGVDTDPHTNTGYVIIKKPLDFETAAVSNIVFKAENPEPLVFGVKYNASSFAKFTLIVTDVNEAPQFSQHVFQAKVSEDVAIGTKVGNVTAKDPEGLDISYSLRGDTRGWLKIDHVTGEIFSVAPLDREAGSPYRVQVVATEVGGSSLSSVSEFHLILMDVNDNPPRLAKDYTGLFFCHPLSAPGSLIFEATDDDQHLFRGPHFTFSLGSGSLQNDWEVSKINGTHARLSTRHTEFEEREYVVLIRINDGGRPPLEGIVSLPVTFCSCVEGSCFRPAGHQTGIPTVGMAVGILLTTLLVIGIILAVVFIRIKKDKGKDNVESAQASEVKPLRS

binding result [1]: binds
B1: CDH17 v1 (antibody, human IgG1, V domains shown)
VH: EVQLQQSVAELVKPGASVKMSCKVSGYTLTDHTIHWMKQRPEQGLEWIGYIYPRDGITGYNEKFKGKATLTADTSSSTAYMQLNSLTSEDSAVYFCARWGYSYRNYAYYYDYWGQGTTLTVSS
VL: DIVMSQSPSSLAVSVGEKVTMSCKSSQSLLHSSNQKNYLAWYQQKPGQSPKVLIYWASTRESGVPDRFTGSGSGTDFTLTITSVKSEDLAVYYCQQYYSYPWTFGGGTRLEIK
notes: described as human IgG1 monoclonal antibody; also called anti-CDH17 v1

binding result [1]: binds
B2: CDH17 v4 (antibody, V domains shown)
VH: B1 VH
VL: DIVMTQSQKFMSTTVGDRVNITCKASQNVGTAVAWYQQKPGQSPKLLIYSASNRYTGVPDRFTGSGSGTDFTLTITNMQSKDLADYFCQQYSSYPWTFGGGTKLEIK
notes: typical human IgG heavy and light chain bands on SDS-PAGE

binding result [1]: binds
B3: CDH17 v2 (antibody, human IgG1, V domains shown)
VH: QVQLVQSGAEVKKPGSSVKVSCKVSGYTFTDHTIHWMKQRPGQGLEWIGYIYPRDVITQYNEKFKGKVTLTADKSTSTAYMELSSLRSEDTAVYLCARWGYFYGSRSYYFDYWGQGTTVTVSS
VL: B1 VL
notes: described as human IgG1 monoclonal antibody; also called anti-CDH17 v2

binding result [1]: binds
B4: CDH17 v3 (antibody, V domains shown)
VH: QVQLQQSDAELVKPGASVKISCKVSGYTFTDHTIHWMKQRPEQGLEWIGYIYPRDVITQYNEKFKGKATLTADKSSSTAYMQLNSLTSEDSAVYLCARWGYFYGSRSYYFDYWGQGTTLTVSS
VL: B1 VL
notes: as for B2

binding result [2]: binds
B5: VHO v374 (VHH)
VHH: EVQLLESGGGLVQPGGSLRLSCAASGFTFSTYWMSWVRQAPGKGLEWVSGINQDGSSTYYADSVKGRFTISRDNSKNTLYLQMNSLRAEDTAVYYCAKWHWAGSSQQFDYWGQGTLVTVSS
notes: VHO single domain; also called TS00374

binding result [2]: binds
B6: VHO v377 (VHH)
VHH: EVQLLESGGGLVQPGGSLRLSCAASGFTFSDYWMSWVRQAPGKGLEWVSAISGDGSSTYYADSVKGRFTISRDNSKNTLYLQMNSLRAEDTAVYYCAKEDWRPGFDYWGQGTLVTVSS
notes: VHO single domain; also called TS00377

binding result [2]: binds
B7: VHO v347 (VHH)
VHH: EVQLLESGGGLVQPGGSLRLSCAASGFTFSTYAMSWVRQAPGKGLEWVSNISGSGGSTYYADSVKGRFTISRDNSKNTLYLQMNSLRAEDTAVYYCAKEQQWVPGFGFDYWGQGTLVTVSS
notes: Variable-heavy-only (VHO) single domain; also called TS00347

binding result [2]: binds
B8: VHO v351 (VHH)
VHH: B7 VHH with T31S, G56S, Q100S, W102H, V103S, F106W
notes: Variable-heavy-only (VHO) single domain; also called TS00351

binding result [2]: binds
B9: VHO v362 (VHH)
VHH: EVQLLESGGGLVQPGGSLRLSCAASGFTFSDYWMSWVRQAPGKGLEWVSNISSDGGSTYYADSVKGRFTISRDNSKNTLYLQMNSLRAEDTAVYYCAKTTTWLLSQHDKTSFDYWGQGTLVTVSS
notes: Variable-heavy-only (VHO) single domain; also called TS00362

binding result [2]: binds
B10: VHO v372 (VHH)
VHH: EVQLLESGGGLVQPGGSLRLSCAASGFTFSSYWMSWVRQAPGKGLEWVSGINYSGSSTYYADSVKGRFTISRDNSKNTLYLQMNSLRAEDTAVYYCAKWSWLGSDKADFDYWGQGTLVTVSS
notes: Variable-heavy-only (VHO) single domain; also called TS00372

binding result [2]: binds
B11: VHO v371 (VHH)
VHH: B10 VHH with S31N, Y53G, S56G, S100H, L102Y, S104Q, D105E, A107K, D108A
notes: Variable-heavy-only (VHO) single domain; also called TS00371

binding result [2]: binds
B12: VHO v355 (VHH)
VHH: EVQLLESGGGLVQPGGSLRLSCAASGFTFSDYWMSWVRQAPGKGLEWVSAISGDGSSTYYADSVKGRFTISRDNSKNTLYLQMNSLRAEDTAVYYCAKETWGTYDFDYWGQGTLVTVSS
notes: Variable-heavy-only (VHO) single domain; also called TS00355

binding result [2]: binds
B13: VHO v349 (VHH)
VHH: EVQLLESGGGLVQPGGSLRLSCAASGFTFSDYWMHWVRQAPGKGLEWVSAIWSSGGSTYYADSVKGRFTISRDNSKNTLYLQMNSLRAEDTAVYYCAKSPTLYDDFDYWGQGTLVTVSS
notes: Variable-heavy-only (VHO) single domain; also called TS00349

binding result [2]: binds
B14: VHO v352 (VHH)
VHH: B13 VHH with D31S, P100K, T101S, Y103H, D104E
notes: Variable-heavy-only (VHO) single domain; also called TS00352

binding result [2]: binds
B15: VHO v343 (VHH)
VHH: B12 VHH with S52K, T100E, G102R, T103P, D105S
notes: Variable-heavy-only (VHO) single domain; also called TS00343

binding result [2]: binds
B16: VHO v345 (VHH)
VHH: B12 VHH with D31N, S52K, G53Q, T100E, G102R, T103D
notes: Variable-heavy-only (VHO) single domain; also called TS00345

binding result [2]: binds
B17: VHO v357 (VHH)
VHH: EVQLLESGGGLVQPGGSLRLSCAASGFTFSDYWMSWVRQAPGKGLEWVSNISSSGSSTYYADSVKGRFTISRDNSKNTLYLQMNSLRAEDTAVYYCAKTSDWLSGKIDEHFDYWGQGTLVTVSS
notes: Variable-heavy-only (VHO) single domain; also called TS00357

binding result [2]: binds
B18: VHO v369 (VHH)
VHH: B17 VHH with S53G, D101Q, S104A, G105R, K106E, I107R, D108S, E109S, H110E
notes: Variable-heavy-only (VHO) single domain; also called TS00369

binding result [2]: binds
B19: VHO v370 (VHH)
VHH: EVQLLESGGGLVQPGGSLRLSCAASGFTFSNYWMSWVRQAPGKGLEWVSNISSDGGSTYYADSVKGRFTISRDNSKNTLYLQMNSLRAEDTAVYYCAKTTTWLTYRQGHGFDYWGQGTLVTVSS
notes: Variable-heavy-only (VHO) single domain; also called TS00370

binding result [2]: binds
B20: VHO v376 (VHH)
VHH: EVQLLESGGGLVQPGGSLRLSCAASGFTFSDYWMSWVRQAPGKGLEWVSGINSSGGSTYYADSVKGRFTISRDNSKNTLYLQMNSLRAEDTAVYYCAKWQFVTQPGHKAFDYWGQGTLVTVSS
notes: Variable-heavy-only (VHO) single domain; also called TS00376

binding result [2]: binds
B21: VHO v380 (VHH)
VHH: B20 VHH with D31N, N52S, S53Q, G56S, V102A, T103S, Q104W, P105R, H107D, A109D
notes: Variable-heavy-only (VHO) single domain; also called TS00380

binding result [2]: binds
B22: VHO v379 (VHH)
VHH: EVQLLESGGGLVQPGGSLRLSCAASGFTFSSYGMSWVRQAPGKGLEWVSNINQSGSSTYYADSVKGRFTISRDNSKNTLYLQMNSLRAEDTAVYYCAKHSHWAHRVLQSFDYWGQGTLVTVSS
notes: Variable-heavy-only (VHO) single domain; also called TS00379

binding result [2]: binds
B23: VHO v342 (VHH)
VHH: EVQLLESGGGLVQPGGSLRLSCAASGFTFSDYWMSWVRQAPGKGLEWVSNISQSGGSTYYADSVKGRFTISRDNSKNTLYLQMNSLRAEDTAVYYCAKDTPGPRWDFDYWGQGTLVTVSS
notes: Variable-heavy-only (VHO) single domain; also called TS00342

binding result [2]: binds
B24: VHO v365 (VHH)
VHH: B23 VHH with S52N, S54D, D99T, T100S, P101D, G102W, P103L, R104L, W105V, D106Q
notes: Variable-heavy-only (VHO) single domain; also called TS00365

binding result [2]: binds
B25: VHO v346 (VHH)
VHH: B23 VHH with N50A, S52K, S54D, D99E, P101W, G102E, P103A, R104H
notes: Variable-heavy-only (VHO) single domain; also called TS00346

binding result [2]: binds
B26: VHO v341 (VHH)
VHH: B23 VHH with D31T, N50V, S52N, S54D, G56S, T100E, P101L, G102K, P103S, R104E
notes: Variable-heavy-only (VHO) single domain; also called TS00341
